The text below walks through data of US20220017612A1 (TILOS THERAPEUTICS, published 2022).

The target of assay [1] is T1, human LAP-TGFβ1 overexpressed on cells (human, UniProt P01137 30-390).
T1 construct: HT1080 or P3U1 cells overexpressing wild-type human LAP-TGFβ1; also called HT1080-huB1; HT1080-hβ1
Description: flow cytometry; black bar HT1080-huB1, grey bar HT1080-null. Background: Flow cytometry measures light scatter and fluorescence of single cells or particles in a stream.

In assay [2] the target is T1, human LAP-TGFβ1 overexpressed on cells. Description: flow cytometry; black bar HT1080-huB1, grey bar HT1080.
Assay [3] deals with T2, human GARP and human LAP-TGFβ1 co-expressed on P3U1 cells (human, UniProt Q14392 20-662).
T2 construct: whole, on cells; also called P3U1 cells over-expressing human GARP and LAP-TGFβ1
Description: flow cytometry competition on P3U1 cells with human GARP and LAP-TGFβ1; competitor of biotin-28G11 (5 µg competitor, 0.31 µg biotin-28G11). Here is the method: In the first experiment, the various humanized 28G11 candidates were tested for retention of binding to human LAP-TGFβ1 by competition with biotin-28G11 in a flow cytometry assay.
P3U1 cells over-expressing human GARP and LAP-TGFβ1 were placed in a round-bottom 96-well plate at density of 40,000 cells/well. The cells were washed with FACS buffer (25 mM HEPES, 2 mM EDTA, 2% fetal bovine serum in Hank's Balanced Salt Solution). 50 μL of 1:200 diluted TruStain Mouse FcX (BioLegend) was added to each well, followed by 50 μL of 100 ng/μL of humanized 28G11 construct (H0L0, H0L1, H0L2, H0L3, HILO, H1L1, H1L2, H1L3, H2L0, H2L1, H2L2, H2L3). The antibody was allowed to bind for 10 minutes. 50 μL of 6.2 ng/μL of biotinylated murine hybridoma 28G11_(hyb) was added to each well. The biotinylated antibody was allowed to bind for 10 minutes, and then the cells were washed twice with FACS buffer. The cells were labeled for 15 minutes with allophytocyanin-streptavidin (BioLegend), washed twice with FACS buffer, and analyzed by flow cytometry.

T1 sequence (P01137 30-390): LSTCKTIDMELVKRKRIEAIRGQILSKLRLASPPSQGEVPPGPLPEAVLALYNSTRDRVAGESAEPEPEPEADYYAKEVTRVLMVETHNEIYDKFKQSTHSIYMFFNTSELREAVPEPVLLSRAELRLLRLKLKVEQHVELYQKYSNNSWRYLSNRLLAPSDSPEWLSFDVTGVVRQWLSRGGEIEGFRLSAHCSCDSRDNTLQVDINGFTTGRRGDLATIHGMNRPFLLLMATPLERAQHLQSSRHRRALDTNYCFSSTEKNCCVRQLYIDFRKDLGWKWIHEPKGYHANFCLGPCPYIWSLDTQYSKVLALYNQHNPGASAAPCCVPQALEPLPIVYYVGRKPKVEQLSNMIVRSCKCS
T2 sequence (chain, as listed by the source, chain 1 of 2): as the sequence (P01137 30-390) above
T2 sequence (Q14392 20-662, chain 2 of 2): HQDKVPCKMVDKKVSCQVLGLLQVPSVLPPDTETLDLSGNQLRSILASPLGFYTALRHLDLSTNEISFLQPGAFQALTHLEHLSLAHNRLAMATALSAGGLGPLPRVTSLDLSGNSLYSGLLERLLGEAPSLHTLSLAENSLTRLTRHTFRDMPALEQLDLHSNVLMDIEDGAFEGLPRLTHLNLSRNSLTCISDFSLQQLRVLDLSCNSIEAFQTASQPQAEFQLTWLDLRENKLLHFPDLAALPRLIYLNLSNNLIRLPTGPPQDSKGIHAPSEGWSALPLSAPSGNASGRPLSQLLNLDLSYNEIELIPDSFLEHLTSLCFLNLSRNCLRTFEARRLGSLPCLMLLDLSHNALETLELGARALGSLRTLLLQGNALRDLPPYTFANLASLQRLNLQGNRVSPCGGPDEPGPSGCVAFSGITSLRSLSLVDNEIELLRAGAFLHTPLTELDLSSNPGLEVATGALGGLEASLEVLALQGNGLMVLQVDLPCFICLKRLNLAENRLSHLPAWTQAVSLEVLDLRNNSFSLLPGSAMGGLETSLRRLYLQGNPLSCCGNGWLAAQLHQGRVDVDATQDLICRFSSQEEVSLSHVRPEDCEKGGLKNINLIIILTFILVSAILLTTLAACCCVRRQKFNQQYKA

B1: 22F9_H1.1 variant (antibody, human IgG1, kappa, V domains shown)
VH: QVQLVQPGAEVVKPGASVKLSCKASGYTFTSYWMHWVKQRPGQGLEWIGMIHPQSGSTNYNEKFKSKATMTVDKSSSTVYMELSSLRSEDTAVYYCAYYDYAGFFDVWGQGTLVTVSS
VL: DIQLTQSPSSLSASVGDRVTITCRASKSVSTSGYSYMHWYQQKPGKAPKLLIYLASNLESGVPSRFSGSGSGTDFTLTISSLQPEDFATYYCQHSRELPYTFGGGTKVEIKR
Regarding B1, in assay [1], the binding result was “binds”.

B2: 22F9_H2.1 variant (antibody, human IgG1, kappa, V domains shown)
VH: QVQLVQPGAEVVKPGASVKLSCKASGYTFTSYWMHWVKQRPGQGLEWIGMIHPQSGSTNYNEKFKSKATLTVDKSTSTAYMELSSLRSEDTAVYYCAYYDYAGFFDVWGQGTLVTVSS
VL: DIQLTQSPSSLSASVGDRVTITCRASKSVSTSGYSYMHWYQQKPGKAPKLLIYLASNLESGVPSRFSGSGSGTDFTLTISSLQPEDFATYYCQHSRELPYTFGGGTKVEIKR
With B2, in assay [1], the binding result is reported as “binds”.

B3: 22F9_H3.1 variant (antibody, human IgG1, kappa, V domains shown)
VH: QVQLVQPGAEVVKPGASVKLSCKASGYTFTSYWMHWVRQAPGQGLEWIGMIHPQSGSTNYNEKFKSRVTLTVDKSSSTAYMELSSLRSEDTAVYYCAYYDYAGFFDVWGQGTLVTVSS
VL: DIQLTQSPSSLSASVGDRVTITCRASKSVSTSGYSYMHWYQQKPGKAPKLLIYLASNLESGVPSRFSGSGSGTDFTLTISSLQPEDFATYYCQHSRELPYTFGGGTKVEIKR
Take B3: in assay [1], the binding result is reported as “binds”.

B4: 28G11_H2L3 (antibody, human IgG1, kappa)
heavy: not shown
light: DIQMTQSPSSLSASVGDRLTISCRASQDISNYLNWYQQKPGKTVKLLIYYTSRLHSGVPSRFSGSGSGTDYTLTISSLQPEDVATYFCQQGDTLPWTFGQGTKLEIKRTVAAPSVFIFPPSDEQLKSGTASVVCLLNNFYPREAKVQWKVDNALQSGNSQESVTEQDSKDSTYSLSSTLTLSKADYEKHKVYACEVTHQGLSSPVTKSFNRGEC
In the case of B4, the binding result in assay [2] and in assay [3] was “binds” throughout.

B5: 28G11_H2L2 (antibody, human IgG1, kappa)
heavy: not shown
light: DIQMTQSPSSLSASVGDRVTITCRASQDISNYLNWYQQKPGKTVKLLIYYTSRLHSGVPSRFSGSGSGTDYTLTISSLQPEDVATYFCQQGDTLPWTFGQGTKLEIKRTVAAPSVFIFPPSDEQLKSGTASVVCLLNNFYPREAKVQWKVDNALQSGNSQESVTEQDSKDSTYSLSSTLTLSKADYEKHKVYACEVTHQGLSSPVTKSFNRGEC
Regarding B5, the binding result in assay [3] is listed as “binds”.

B6: 28G11_H2L1 (antibody, human IgG1, kappa, V domains shown)
VH: EVQLVESGGGLVQPGGSLRLSCAASGFTFTDYYMSWVRQAPGKGLEWLGFIRNKPNGYTTEYSASVKGRFTISRDNSQSSLYLQMNSLKTEDTAVYYCARYTGGGYFDYWGQGTLLTVSS
VL: DIQMTQSPSSLSASVGDRVTITCRASQDISNYLNWYQQKPGKVPKLLIYYTSRLHSGVPSRFSGSGSGTDYTLTISSLQPEDVATYFCQQGDTLPWTFGQGTKLEIKR
For the molecule B6, the binding result in assay [3] is listed as “binds”.
